{"source": "patent US8398971B2", "about": "“Methods, compounds, and compositions for treatment and prophylaxis in the respiratory tract” (NexBio, Inc., priority 2009, dated 2013)", "molecules": {"B1": {"name": "A. viscosus: bacterial sialidase enzyme from Actinomyces viscosus (SEQ ID NO:12) (protein, listed as Actinomyces viscosus)", "chain": "MTSHSPFSRRRLPALLGSLPLAATGLIAAAPPAHAVPTSDGLADVTITQVNAPADGLYSVGDVMTFNITLTNTSGEAHSYAPASTNLSGNVSKCRWRNVPAGTTKTDCTGLATHTVTAEDLKAGGFTPQIAYEVKAVEYAGKALSTPETIKGATSPVKANSLRVESITPSSSQENYKLGDTVSYTVRVRSVSDKTINVAATESSFDDLGRQCHWGGLKPGKGAVYNCKPLTHTITQADVDAGRWTPSITLTATGTDGATLQTLTATGNPINVVGDHPQATPAPAPDASTELPASMSQAQHLAANTATDNYRIPAITTAPNGDLLISYDERPKDNGNGGSDAPNPNHIVQRRSTDGGKTWSAPTYIHQGTETGKKVGYSDPSYVVDHQTGTIFNFHVKSYDQGWGGSRGGTDPENRGIIQAEVSTSTDNGWTWTHRTITADITKDKPWTARFAASGQGIQIQHGPHAGRLVQQYTIRTAGGAVQAVSVYSDDHGKTWQAGTPIGTGMDENKVVELSDGSLMLNSRASDGSGFRKVAHSTDGGQTWSEPVSDKNLPDSVDNAQIIRAFPNAAPDDPRAKVLLLSHSPNPRPWSRDRGTISMSCDDGASWTTSKVFHEPFVGYTTIAVQSDGSIGLLSEDAHNGADYGGIWYRNFTMNWLGEQCGQKPAEPSPAPSPTAAPSAAPTEKPAPSAAPSAEPTQAPAPSSAPEPSAAPEPSSAPAPEPTTAPSTEPTPAPAPSSAPEQTDGPTAAPAPETSSAPAAEPTQAPTVAPSVEPTQAPGAQPSSAPKPGATGRAPSVVNPKATGAATEPGTPSSSASPAPSRNAAPTPKPGMEPDEIDRPSDGTMAQPTGGASAPSAAPTQAAKAGSRLSRTGTNALLILGLAGVAVVGGYLLLRARRSKN"}, "B2": {"name": "AR-AvCD: recombinant AR-AvCD sialidase fusion protein made from Construct #2 (FIG. 5, SEQ ID NOs: 18 & 19) (protein)", "chain": "MVKRKKKGGKNGKNRRNRKKKNPGDHPQATPAPAPDASTELPASMSQAQHLAANTATDNYRIPAITTAPNGDLLISYDERPKDNGNGGSDAPNPNHIVQRRSTDGGKTWSAPTYIHQGTETGKKVGYSDPSYVVDHQTGTIFNFHVKSYDQGWGGSRGGTDPENRGIIQAEVSTSTDNGWTWTHRTITADITKDKPWTARFAASGQGIQIQHGPHAGRLVQQYTIRTAGGAVQAVSVYSDDHGKTWQAGTPIGTGMDENKVVELSDGSLMLNSRASDGSGFRKVAHSTDGGQTWSEPVSDKNLPDSVDNAQIIRAFPNAAPDDPRAKVLLLSHSPNPRPWSRDRGTISMSCDDGASWTTSKVFHEPFVGYTTIAVQSDGSIGLLSEDAHNGADYGGIWYRNFTMNWLGEQCGQKPAEGADYGGIWYRNFTMNWLGEQCGQKPAE"}, "B3": {"name": "DAS181: fusion protein comprising a catalytic domain of a sialidase, and an anchoring domain (SEQ ID NO:21) (protein)", "chain": "MGDHPQATPAPAPDASTELPASMSQAQHLAANTATDNYRIPAITTAPNGDLLISYDERPKDNGNGGSDAPNPNHIVQRRSTDGGKTWSAPTYIHQGTETGKKVGYSDPSYVVDHQTGTIFNFHVKSYDQGWGGSRGGTDPENRGIIQAEVSTSTDNGWTWTHRTITADITKDKPWTARFAASGQGIQIQHGPHAGRLVQQYTIRTAGGAVQAVSVYSDDHGKTWQAGTPIGTGMDENKVVELSDGSLMLNSRASDGSGFRKVAHSTDGGQTWSEPVSDKNLPDSVDNAQIIRAFPNAAPDDPRAKVLLLSHSPNPRPWSRDRGTISMSCDDGASWTTSKVFHEPFVGYTTIAVQSDGSIGLLSEDAHNGADYGGIWYRNFTMNWLGEQCGQKPAKRKKKGGKNGKNRRNRKKKNP"}}, "key": {"[1]": {"conditions": "pH 5; cited from earlier work"}, "influenza A (H1N1) virus": {"tested_on": "influenza A (H1N1) virus", "type": "in vivo, ferrets", "conditions": "for inflammatory response of infected ferrets: topical administration"}, "[2]": {"tested_on": "acute OVA challenge mouse model of asthma", "assay": "PAS staining for lung mucus in OVA mouse model of asthma", "design": "species or system BALB/c mice", "conditions": "in vivo"}, "M2 muscarinic receptor": {"biological_target": "M2 muscarinic receptor (Homo sapiens, UniProt P08172)", "sequence (P08172 whole entry)": "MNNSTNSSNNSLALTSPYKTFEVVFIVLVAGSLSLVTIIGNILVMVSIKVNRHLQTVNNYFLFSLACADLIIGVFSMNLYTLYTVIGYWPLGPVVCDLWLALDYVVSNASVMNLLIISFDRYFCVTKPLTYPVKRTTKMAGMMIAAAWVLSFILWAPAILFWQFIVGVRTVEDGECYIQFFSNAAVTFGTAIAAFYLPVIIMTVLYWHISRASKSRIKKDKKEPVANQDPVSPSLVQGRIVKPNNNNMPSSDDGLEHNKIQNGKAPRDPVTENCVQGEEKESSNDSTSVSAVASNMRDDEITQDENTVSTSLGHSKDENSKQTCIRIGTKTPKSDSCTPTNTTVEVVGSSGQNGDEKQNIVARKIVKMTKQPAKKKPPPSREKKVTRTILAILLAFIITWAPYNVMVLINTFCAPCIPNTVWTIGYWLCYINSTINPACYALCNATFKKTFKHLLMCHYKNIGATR", "assay": "M2 muscarinic receptor signaling in chem-1 cells (intracellular calcium)", "type": "cell-based", "conditions": "0.4, 2 or 10 μM"}, "[3]": {"tested_on": "acute OVA challenge mouse model of asthma", "type": "in vivo, BALB/c mice", "conditions": "0.6 mg/kg intranasal one hour prior to each OVA challenge; day 31"}, "[4]": {"tested_on": "guinea pig model of allergic asthma", "assay": "allergen-induced early asthmatic reaction (PenH) in conscious unrestrained guinea pigs", "type": "in vivo", "conditions": "for decrease of early asthmatic reaction (PenH) after OVA aerosol: OVA guinea pigs; for basal PenH: guinea pig, in vivo, 0.3 mg/kg"}, "[5]": {"tested_on": "guinea pig model of allergic asthma", "assay": "cell count and differentiation in broncho-alveolar lavage fluid of guinea pigs", "type": "in vivo"}, "M3 muscarinic receptor": {"biological_target": "T1, M3 muscarinic receptor (Homo sapiens, UniProt P20309)", "T1 construct": "host or cells: chem-1 cells", "T1 sequence (P20309 whole entry)": "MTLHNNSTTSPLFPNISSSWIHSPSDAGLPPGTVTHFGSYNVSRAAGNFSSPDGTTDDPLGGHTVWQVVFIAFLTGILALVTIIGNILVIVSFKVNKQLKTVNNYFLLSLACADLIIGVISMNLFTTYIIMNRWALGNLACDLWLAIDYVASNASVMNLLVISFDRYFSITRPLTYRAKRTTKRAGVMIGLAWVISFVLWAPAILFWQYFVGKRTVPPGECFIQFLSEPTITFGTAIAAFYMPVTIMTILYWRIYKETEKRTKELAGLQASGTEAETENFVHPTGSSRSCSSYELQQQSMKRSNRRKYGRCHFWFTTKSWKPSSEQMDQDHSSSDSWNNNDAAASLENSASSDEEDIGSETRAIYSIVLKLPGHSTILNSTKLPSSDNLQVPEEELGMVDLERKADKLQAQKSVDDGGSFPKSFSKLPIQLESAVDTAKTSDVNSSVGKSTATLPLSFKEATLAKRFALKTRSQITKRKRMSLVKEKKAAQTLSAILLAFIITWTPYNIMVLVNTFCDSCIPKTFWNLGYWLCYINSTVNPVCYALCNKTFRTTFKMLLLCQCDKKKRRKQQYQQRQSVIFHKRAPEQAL", "assay": "M3 muscarinic receptor signaling in chem-1 cells (intracellular calcium)", "type": "cell-based", "conditions": "0.4, 2 or 10 μM"}, "[6]": {"tested_on": "acute OVA challenge mouse model of asthma", "assay": "blood eosinophil counts in OVA mouse model of asthma", "type": "in vivo, BALB/c mice", "conditions": "0.6 mg/kg intranasal"}}, "note": "Where “and” joins values, the source holds several entries; their conditions need not be identical. Equal values may be shown once. Entries after “also recorded” stand apart in the source; their conditions may differ. Read-outs that look alike come from different tables or passages of the source."}
{"molecule": "B1", "values": [{"measurement": "stability in buffer", "setting": "[1]", "result": "stable"}]}
{"molecule": "B2", "values": [{"measurement": "reduction of mean AUC of nasal protein concentrations vs vehicle-treated infected animals", "setting": "influenza A (H1N1) virus; 8 infected treated ferrets", "result": "approximately 40%"}, {"measurement": "mean AUC of nasal protein concentrations", "setting": "influenza A (H1N1) virus; 8 infected treated ferrets that shed virus, vehicle 4.48", "result": 2.68, "unit": "arbitrary units"}, {"measurement": "reduction of AUC value for cell counts vs vehicle-treated infected animals", "setting": "influenza A (H1N1) virus; in vivo", "result": "approximately 3 fold"}, {"measurement": "AUC value for inflammatory cell counts in nasal washes", "setting": "influenza A (H1N1) virus; infected treated ferrets, vehicle 1965", "result": 674, "unit": "arbitrary units"}, {"measurement": "inflammatory response of infected ferrets", "setting": "influenza A (H1N1) virus", "result": "reduces the inflammatory responses"}, {"measurement": "inflammatory response of infected ferrets", "setting": "influenza A (H1N1) virus; listed as fusion protein", "result": "the inflammatory response was reduced"}, {"measurement": "number of inflammatory cells in the nasal washes", "setting": "influenza A (H1N1) virus; vs vehicle-treated infected animals", "result": "significant reduction in the number of inflammatory cells"}]}
{"molecule": "B3", "values": [{"measurement": "PAS staining of airway epithelium (lung mucus) vs OVA challenged mice", "setting": "[2]", "result": "statistically significant reduction in PAS staining; also recorded: significantly reduced PAS staining"}, {"measurement": "effect on potency of agonist-mediated M2 receptor signaling", "setting": "M2 muscarinic receptor", "result": "increased the potency of agonist-mediated M2 receptor signaling"}, {"measurement": "Penh at 48 mg/ml Mch vs OVA challenged mice", "setting": "[3]", "result": "reduction in Penh"}, {"measurement": "decrease of early asthmatic reaction (PenH) after OVA aerosol", "setting": "[4]; treated on day 15, vs sodium sulfate", "result": "~30", "unit": "%"}, {"measurement": "decrease of early asthmatic reaction (PenH) after OVA aerosol", "setting": "[4]; treated on day 20", "result": "not on day 20"}, {"measurement": "basal PenH", "setting": "[4]", "result": "0.25±0.01 and 0.28±0.01"}, {"measurement": "basal PenH", "setting": "[4]; listed as Fludase®", "result": "0.27±0.02 and 0.31±0.03"}, {"measurement": "number of eosinophils in BAL fluid", "setting": "[5]; guinea pig, in vivo", "result": "restore the number of eosinophils up to historical control levels"}, {"measurement": "number of lymphocytes in BAL fluid", "setting": "[5]; guinea pig, in vivo", "result": "decreased"}, {"measurement": "number of all inflammatory cells (macrophages, lymphocytes, neutrophils and eosinophils)", "setting": "[5]; inflammation caused by SOD or OVA", "result": "significantly decreased"}, {"measurement": "neutrophil influx into the lungs (BAL)", "setting": "[5]; saline and OVA groups", "result": "completely prevented this influx"}, {"measurement": "total number of cells in BAL fluid", "setting": "[5]; saline and OVA guinea pigs", "result": "decreases the total number of cells"}, {"measurement": "total number of macrophages in BAL fluid", "setting": "[5]; treatment on day 15 and 20, saline and OVA guinea pigs", "result": "strongly decreased"}, {"measurement": "effect on potency of agonist-mediated M3 receptor signaling", "setting": "M3 muscarinic receptor", "result": "decreased the potency of agonist-mediated M3 receptor signaling"}, {"measurement": "blood eosinophils vs OVA challenged mice", "setting": "[6]", "result": "significantly reduced blood eosinophils"}]}
